The target of this test is budding yeast condensin holoenzyme (heteropentamer of Smc2, Smc4, Brn1, Ycg1 and Ycs4) (budding yeast) (UniProt P38989). Description: SEC; Superose 6 10/300 gel filtration as the last step of purification after nickel-NTA and StrepTactin; self-association of the heteropentamer (monomer) into a multimer. A general note: Size exclusion chromatography separates by hydrodynamic size, large species first.

“budding yeast condensin holoenzyme (heteropentamer of Smc2, Smc4, Brn1, Ycg1 and Ycs4), P38989 1-1170; Q12267 1-1418; P38170 1-754; Q06680 1-1035; Q06156 1-1176” showed a percent multimeric in the Streptactin-purified fraction of 30%.

The values above are taken from publication PMC5660149, “Oligomerization and ATP stimulate condensin-mediated DNA compaction” (Scientific Reports, 2017).
